{"source": "IntAct's records for PubMed 25910212", "parents": {"B1": {"name": "EF-hand domain-containing protein 1 (Homo sapiens), Q5JVL4 (parent)", "chain": "MVSNPVHGLPFLPGTSFKDSTKTAFHRSQTLSYRNGYAIVRRPTVGIGGDRLQFNQLSQAELDELASKAPVLTYGQPKQAPPADFIPAHVAFDKKVLKFDAYFQEDVPMSTEEQYRIRQVNIYYYLEDDSMSVIEPVVENSGILQGKLIKRQRLAKNDRGDHYHWKDLNRGINITIYGKTFRVVDCDQFTQVFLESQGIELNPPEKMALDPYTELRKQPLRKYVTPSDFDQLKQFLTFDKQVLRFYAIWDDTDSMYGECRTYIIHYYLMDDTVEIREVHERNDGRDPFPLLMNRQRVPKVLVENAKNFPQCVLEISDQEVLEWYTAKDFIVGKSLTILGRTFFIYDCDPFTRRYYKEKFGITDLPRIDVSKREPPPVKQELPPYNGFGLVEDSAQNCFALIPKAPKKDVIKMLVNDNKVLRYLAVLESPIPEDKDRRFVFSYFLATDMISIFEPPVRNSGIIGGKYLGRTKVVKPYSTVDNPVYYGPSDFFIGAVIEVFGHRFIILDTDEYVLKYMESNAAQYSPEALASIQNHVRKREAPAPEAESKQTEKDPGVQELEALIDTIQKQLKDHSCKDNIREAFQIYDKEASGYVDRDMFFKICESLNVPVDDSLVKELIRMCSHGEGKINYYNFVRAFSN"}, "B2": {"name": "ATP synthase mitochondrial F1 complex assembly factor 2 (Homo sapiens), Q8N5M1 (parent)", "chain": "MWRSCLRLRDGGRRLLNRPAGGPSASMSPGPTIPSPARAYAPPTERKRFYQNVSITQGEGGFEINLDHRKLKTPQAKLFTVPSEALAIAVATEWDSQQDTIKYYTMHLTTLCNTSLDNPTQRNKDQLIRAAVKFLDTDTICYRVEEPETLVELQRNEWDPIIEWAEKRYGVEISSSTSIMGPSIPAKTREVLVSHLASYNTWALQGIEFVAAQLKSMVLTLGLIDLRLTVEQAVLLSRLEEEYQIQKWGNIEWAHDYELQELRARTAAGTLFIHLCSESTTVKHKLLKE"}}, "data": [{"variants_of": "B1", "conditions": "with ikzf3_human IKZF3, Q9UKT9", "values": [{"variant": "M448T", "effect of a mutation on the interaction": "with no effect"}, {"variant": "R159W", "effect of a mutation on the interaction": "with no effect"}, {"variant": "T508R", "effect of a mutation on the interaction": "with no effect"}, {"variant": "A394S", "effect of a mutation on the interaction": "disrupting interaction strength"}, {"variant": "P77T", "effect of a mutation on the interaction": "disrupting interaction strength"}]}, {"variants_of": "B1", "conditions": "with kctd4_human KCTD4, Q8WVF5", "values": [{"variant": "M448T", "effect of a mutation on the interaction": "with no effect"}, {"variant": "R159W", "effect of a mutation on the interaction": "with no effect"}, {"variant": "T508R", "effect of a mutation on the interaction": "with no effect"}, {"variant": "A394S", "effect of a mutation on the interaction": "disrupting interaction strength"}, {"variant": "P77T", "effect of a mutation on the interaction": "disrupting interaction strength"}]}, {"variants_of": "B1", "conditions": "with rim3a_human RIMBP3, Q9UFD9", "values": [{"variant": "M448T", "effect of a mutation on the interaction": "with no effect"}, {"variant": "R159W", "effect of a mutation on the interaction": "with no effect"}, {"variant": "T508R", "effect of a mutation on the interaction": "with no effect"}, {"variant": "A394S", "effect of a mutation on the interaction": "disrupting interaction strength"}, {"variant": "P77T", "effect of a mutation on the interaction": "disrupting interaction strength"}]}, {"variants_of": "B1", "conditions": "with trip6_human TRIP6, Q15654", "values": [{"variant": "M448T", "effect of a mutation on the interaction": "with no effect"}, {"variant": "R159W", "effect of a mutation on the interaction": "with no effect"}, {"variant": "T508R", "effect of a mutation on the interaction": "with no effect"}, {"variant": "A394S", "effect of a mutation on the interaction": "disrupting interaction strength"}, {"variant": "P77T", "effect of a mutation on the interaction": "disrupting interaction strength"}]}, {"variants_of": "B1", "conditions": "with KRT15, P19012", "values": [{"variant": "M448T", "effect of a mutation on the interaction": "with no effect"}, {"variant": "R159W", "effect of a mutation on the interaction": "with no effect"}, {"variant": "T508R", "effect of a mutation on the interaction": "with no effect"}, {"variant": "A394S", "effect of a mutation on the interaction": "disrupting interaction strength"}, {"variant": "P77T", "effect of a mutation on the interaction": "disrupting interaction strength"}]}, {"variants_of": "B1", "conditions": "with TCF4, P15884-3", "values": [{"variant": "M448T", "effect of a mutation on the interaction": "with no effect"}, {"variant": "R159W", "effect of a mutation on the interaction": "with no effect"}, {"variant": "T508R", "effect of a mutation on the interaction": "disrupting interaction strength"}, {"variant": "A394S", "effect of a mutation on the interaction": "disrupting interaction strength"}, {"variant": "P77T", "effect of a mutation on the interaction": "disrupting interaction strength"}]}, {"variants_of": "B1", "conditions": "with goga2_human GOLGA2, Q08379", "values": [{"variant": "M448T", "effect of a mutation on the interaction": "with no effect"}, {"variant": "R159W", "effect of a mutation on the interaction": "with no effect"}, {"variant": "T508R", "effect of a mutation on the interaction": "with no effect"}, {"variant": "A394S", "effect of a mutation on the interaction": "disrupting interaction strength"}, {"variant": "P77T", "effect of a mutation on the interaction": "disrupting interaction strength"}]}, {"variants_of": "B2", "conditions": "with ikzf3_human IKZF3, Q9UKT9", "values": [{"variant": "W94R", "effect of a mutation on the interaction": "disrupting interaction strength"}]}, {"variants_of": "B2", "conditions": "with pak5_human PAK5, Q9P286", "values": [{"variant": "W94R", "effect of a mutation on the interaction": "disrupting interaction strength"}]}, {"variants_of": "B2", "conditions": "with maga6_human MAGEA6, P43360", "values": [{"variant": "W94R", "effect of a mutation on the interaction": "disrupting interaction strength"}]}, {"variants_of": "B2", "conditions": "with lzts2_human LZTS2, Q9BRK4", "values": [{"variant": "W94R", "effect of a mutation on the interaction": "disrupting interaction strength"}]}, {"variants_of": "B2", "conditions": "with KRT40, Q6A162", "values": [{"variant": "W94R", "effect of a mutation on the interaction": "disrupting interaction strength"}]}, {"variants_of": "B2", "conditions": "with rpia_human RPIA", "values": [{"variant": "W94R", "effect of a mutation on the interaction": "disrupting interaction strength"}]}, {"variants_of": "B2", "conditions": "with ews_human EWSR1, Q01844", "values": [{"variant": "W94R", "effect of a mutation on the interaction": "disrupting interaction strength"}]}]}
